Results as given in US20150307628A1.

Legend:
[1] = target: dummy-Fc heavy chain constant region with CH3B of mutant SW-WVT (S-S) (Y349C/E357W/D399V/F405T) (human) [IgG part: P0DOX5]; experiment: non-reducing SDS-PAGE, SW-WVT (S-S) against SW-WVT
[2] = target: dummy-Fc heavy chain constant region with CH3B of mutant EW-RVT (S-S) (Q347R/S354C/D399V/F405T) (human) [IgG part: P0DOX5]; experiment: non-reducing SDS-PAGE, EW-RVT (S-S) against EW-RVT

greater heterodimer formability than the variant without disulfide bridge [1] [%]	greater heterodimer formability than the variant without disulfide bridge [2] [%]	Substance
9	–	hAY4a scFv-Fc heavy chain with CH3A of mutant SW-WVT (S-S) (Y349S/S354C/K409W) (from UniProt P0DOX5 227-449) (Fc fusion)
–	3	hAY4a scFv-Fc heavy chain with CH3A of mutant EW-RVT (S-S) (Y349C/K360E/K409W) (from UniProt P0DOX5 227-449) (Fc fusion)
